How the values were obtained:
[1] = biological target: misfolded dH5-II (H5 of A/Vietnam/1203/04, heat cycling at pH 2) (influenza virus H5N1 strain A/Vietnam/1203/04); assay: ELISA epitope scanning, immobilized H5 form; scaled
[2] = biological target: fdH5-0, ultrafiltrated dH5-0 (H5 of A/Vietnam/1203/04) (influenza virus H5N1 strain A/Vietnam/1203/04); assay: as above
[3] = biological target: misfolded dH5-I (H5 of A/Vietnam/1203/04, heat cycling at pH 7) (influenza virus H5N1 strain A/Vietnam/1203/04); assay: as above
[4] = biological target: cdH5-0, crossbeta H5 (A/Vietnam/1203/04) after centrifugation (influenza virus H5N1 strain A/Vietnam/1203/04); assay: as above
[5] = biological target: misfolded dH5-III (H5 of A/Vietnam/1203/04, prolonged incubation at 5 C below the melting temperature) (influenza virus H5N1 strain A/Vietnam/1203/04); assay: as above
[6] = biological target: crossbeta H5-0 (dH5-0), H5 of H5N1 strain A/Vietnam/1203/04 stock as supplied by Protein Sciences (influenza virus H5N1 strain A/Vietnam/1203/04); assay: as above
[7] = biological target: non-treated H5 of H5N1 strain A/Vietnam/1203/04 (nH5), Protein Sciences (influenza virus H5N1 strain A/Vietnam/1203/04); assay: ELISA, coated nH5 overlayed with 1:2000 diluted antibody
[8] = biological target: misfolded dH5-II (H5 of A/Vietnam/1203/04, heat cycling at pH 2) (influenza virus H5N1 strain A/Vietnam/1203/04); assay: ELISA, immobilized H5 form; normalized to cdH5-0
[9] = biological target: fdH5-0, ultrafiltrated dH5-0 (H5 of A/Vietnam/1203/04) (influenza virus H5N1 strain A/Vietnam/1203/04); assay: ELISA, immobilized H5 form; normalized to cdH5-0
[10] = biological target: misfolded dH5-I (H5 of A/Vietnam/1203/04, heat cycling at pH 7) (influenza virus H5N1 strain A/Vietnam/1203/04); assay: ELISA, immobilized H5 form; normalized to cdH5-0
[11] = biological target: cdH5-0, crossbeta H5 (A/Vietnam/1203/04) after centrifugation (influenza virus H5N1 strain A/Vietnam/1203/04); assay: ELISA, immobilized H5 form; normalized to cdH5-0
[12] = biological target: misfolded dH5-III (H5 of A/Vietnam/1203/04, prolonged incubation at 5 C below the melting temperature) (influenza virus H5N1 strain A/Vietnam/1203/04); assay: ELISA, immobilized H5 form; normalized to cdH5-0
[13] = biological target: crossbeta H5-0 (dH5-0), H5 of H5N1 strain A/Vietnam/1203/04 stock as supplied by Protein Sciences (influenza virus H5N1 strain A/Vietnam/1203/04); assay: ELISA, immobilized H5 form; normalized to cdH5-0; average of two measurements
[14] = biological target: misfolded dH5-II (H5 of A/Vietnam/1203/04, heat cycling at pH 2) (influenza virus H5N1 strain A/Vietnam/1203/04); assay: ELISA, immobilized H5 form, tPA with excess epsilon-amino caproic acid
[15] = biological target: fdH5-0, ultrafiltrated dH5-0 (H5 of A/Vietnam/1203/04) (influenza virus H5N1 strain A/Vietnam/1203/04); assay: as above
[16] = biological target: cdH5-0, crossbeta H5 (A/Vietnam/1203/04) after centrifugation (influenza virus H5N1 strain A/Vietnam/1203/04); assay: as above
[17] = biological target: crossbeta H5-0 (dH5-0), H5 of H5N1 strain A/Vietnam/1203/04 stock as supplied by Protein Sciences (influenza virus H5N1 strain A/Vietnam/1203/04); assay: as above

Work on “Rockland anti-H5 A/VN/1203/04 mouse monoclonal antibody, catalogue number 200-301-975” yielded a relative affinity kD [1] of 79 a.u, a relative affinity kD [2] of 103 a.u and a relative affinity kD [3] of 47 a.u. It also gave a relative affinity kD [4] of 100 a.u, a relative affinity kD [5] of 78 a.u and a relative affinity kD [6] of 102 a.u. It also gave an ELISA signal at 1:2000 antibody dilution [7] of 1.5.
“Rockland anti-H5 A/VN/1203/04 mouse monoclonal antibody, catalogue number 200-301-976” showed a relative affinity kD [1] of 132 a.u, a relative affinity kD [2] of 105 a.u and a relative affinity kD [3] of 0 a.u. For the same substance, the relative affinity kD [4] was 100 a.u, the relative affinity kD [5] was 127 a.u and the relative affinity kD [6] was 88 a.u.
“Rockland anti-H5 A/VN/1203/04 mouse monoclonal antibody, catalogue number 200-301-977” was tested, and the relative affinity kD [1] was 0 a.u, the relative affinity kD [2] was 93 a.u and the relative affinity kD [3] was 0 a.u. The relative affinity kD [4] was 100 a.u, the relative affinity kD [5] was 35 a.u and the relative affinity kD [6] was 98 a.u.
In the case of “Rockland anti-H5 A/VN/1203/04 mouse monoclonal antibody, catalogue number 200-301-978”, the relative affinity kD [1] is reported as 31 a.u, the relative affinity kD [2] is reported as 107 a.u and the relative affinity kD [3] is reported as 115 a.u. It also gave a relative affinity kD [4] of 100 a.u, a relative affinity kD [5] of 112 a.u and a relative affinity kD [6] of 85 a.u.
With “Rockland anti-H5 A/VN/1203/04 mouse monoclonal antibody, catalogue number 200-301-979” the relative affinity kD [1] was 83 a.u, the relative affinity kD [2] was 97 a.u and the relative affinity kD [3] was 125 a.u. The relative affinity kD [4] was 100 a.u, the relative affinity kD [5] was 126 a.u and the relative affinity kD [6] was 103 a.u.
Work on “fourth and fifth finger domain of fibronectin (Fn F4-5) with C-terminal FLAG-tag (from UniProt P02751 184-273)” yielded a Normalized affinity, kD (%) [8] of 88%, a Normalized affinity, kD (%) [9] of 69% and a Normalized affinity, kD (%) [10] of 0%. The Normalized affinity, kD (%) [11] was 100%, the Normalized affinity, kD (%) [12] was 6% and the Normalized affinity, kD (%) [13] was 103%.
“tissue type plasminogen activator (tPA; Actilyse, Boehringer-Ingelheim) (from UniProt P00750 36-562) (enzyme)” gave a Kd [14] of 0.019 µM, a Kd [15] of 0.342 µM and a Kd [16] of 0.102 µM. For the same substance, the Kd [17] was 0.096 µM.
